From the domain aggregation screens of Martell et al. (2025)

Test: soluble fraction after stress (log2 fold change); higher = more stays soluble; pooled small domains, quantitative proteomics
Conditions: stress: pH 4
Summary of the method: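 Pooled custom libraries of small protein domains were stressed at pH 4 and then measured by high-throughput quantitative proteomics. The fold change in the amount of each domain that stays soluble after the acid stress serves as a measure of aggregation propensity. Fold changes are given on a log2 scale, and higher values mean more of the domain stayed soluble.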

| Sequence | soluble fraction (log2) |
| --- | --- |
| HMSKQEFVDRLRVSLSGKISPASVEDNARYYEDYINTHIRLGEPEEDVLEGLGDPRLIARSIVAAESV | -0.0405 |
| HMSKQLGFKIKTARRKLNISQGDLSKKLEISPSYLNLIESGKRKVSTDLLMKASEILNLDLKKL | ≥ 0.43 |
| HMSKQQFLDELAARLREEGAELLVAENLNFYRSYIEEEVAKGRSEEEVLAELGNPALIARSILDAAGF | -1.15 |
| HMSKSIELMNEIKKYIEEYYLQYRQSPSTTKIAEAVGIARGTAYKYLVEMSERNMIEYDGQEISTEVTRKY | -0.381 |
| HMSKSKSEIDKDPHFWSSLFQRIGEGESLRKIAKDSKIPKSTLWAWIRNDPQLALRYSEAQQ | 0.00982 |
| HMSLAATLSPREIDTVRLIAVGSSNKEIARQLGIAETTVKIHVQHILRKLNLTSRVQVAVFANAEGII | -0.407 |
| HMSLAISGRNQLHGIIEEVRSDGLLSQIYLRVGDQVLTAVITRDAVAELKLKRGDTAVAIMKSTEVMIARE | 0.0191 |
| HMSLDLERAVALLSLPRPVGNHPEDGELVEAGIGRYGPYVKHGSKYANLPDADEVFTIGMNRAVEVLAAK | -0.261 |
| HMSLDTASDKELLGLIVSEPIATRVLDAFRTLDATLFRTTPAELAAAAGVSSEHAQKIKAVAEIAARMLKP | -0.363 |
| HMSLEDYVIIKNKTVKVYETEFDGAPVVTSSSVGQKLILVEYNDNFAKILYRAKDGLDYVGYIKRKDVYVR | -1.04 |
| HMSLLLTPREASVWASEYLGKKVTSNNIIYLLNYGKIANHSTDLKENLIDKNELKIYYDSTIKSQKH | 0.00309 |
| HMSLLQDRQRHEALAALGYYRGSVSAAWGAASVEALKAAQAALGVEVDGKWGPKTEDVIQAALGT | -0.453 |
| HMSLLQTRQRHEALAALGFFKGDVAAEWSAASTEALRAAQASLGIRVDGKWGPQTEDAIGKALAERQG | 0.108 |
| HMSLLTIDELSQATGVSVRTLRYYVSSGVLDKPTGETRNARYGTHHLDQVRNIKKLQEEGLTLNRILEIKK | -0.405 |
| HMSLNHDIWVQELKEKRSGYGISQSRLAIAAGMTRQYLSDIETGKVLPSAERKAAITEALERFNPD | -0.213 |
| HMSLNNAHNTIFPRIIELMEMKQLENVLLIGGGIIPRKDIESLESSGVTKLYGPGTPVKETIEFITNWVK | -0.533 |
| HMSLPKVLVPTDITVSQLAKYLEVDAIAIVKKLFGLGVVASLNQRLENEQMQLLGQEFGKDIIFTEN | -0.318 |
| HMSLPTSDWKRALSLFDEALSLPPDARDAWLAHTIAREPAVSPLLQKLLGAHRRVETNDILATLPR | -0.274 |
| HMSLQNTMANFAGGVLVLFLKPFKAGDYIVTKDGEGTVASIGLVYTTLLTIENKRIVIPNSSISNSPITN | -0.673 |
| HMSLRGEKTYDEAHQKLIKSAVELFKNPLVSPEKITVSQIAKHAGVSVATAYNHFPENKLDIYGSIF | -0.0613 |
| HMSLRVIEIFGTPQQMSARISLMDGSVTDVKVGQSIPGTSYKVASITGNGVWIQNGTAVSYTHL | 0.00817 |
| HMSLSDADVERLLEVAIDIESLEEREGLYYQANESEPYSGWGKLMYDSGQVERLVPYKDGRWEGLWTIW | -1.18 |
| HMSLSISSLVFFRKNAGLTQADIATAMSITQSAVARLEKRLLSDSDVTLKTLERYAEAVGIRMHVDFEP | -0.0175 |
| HMSLSKEEFETISKQVLELAGAGPIPVKELLQKMERTSKEKAWKVIEFLQAEDKIVPDATGRIQL | -0.457 |
| HMSLSKQETEFLTTFSASGKRVFTYQQATDYWQSKVAATNVLGRLVRKGWLQRLERGLYMIIPLEAGPERF | -0.807 |

| Sequence | soluble fraction (log2) |
| --- | --- |
| HMSLSPAATRSRGYPSVLLTMKAPERLVSAAGPDRRAYLVGTDPLVIELPGVKGLYKVDPDQIVFE | -0.0637 |
| HMSLTEEQVDSGLKEIRLALLEADVALPVVKNFITNIKPKAIGQEIIRSTSPGQMIVKIVYDELVSIL | -0.85 |
| HMSLTEESAKSLIGLTENEAVKVAAERGWTVRVAMRDGEAFMLTQDYSENRVNLTVMKTLVTAVTI | -0.0567 |
| HMSLTMPKLIGMHLFQAERTLNYYGFQYKVEGPDSASVVIDQYPKEGVTVDPHYPITLKIGPSA | 0.206 |
| HMSLYGGYEIDIIKEEVVDAGIKLLRRRVIVADQRGISVYEGKPTFASDDQVLIKEGQYQIDKLG | -1.46 |
| HMSMHVHTPNPDFKPSNTNALQEGQLVEHPKFGFGKVQKIETEGLNKKASIQFEHFGEKTLLLSFAKLRII | -0.167 |
| HMSMLGTEQRVLVLGPARKGEGFLMARTDNNRIVNFEGPLSLVDTMVRVKVTDVYPHSLGGQLL | -0.0321 |
| HMSMPDERMLTSWMMARVKAAGKTMTRDAWNEFFERSNDSMDHMDMEMEKLLSYVYDKDGITLEDVEA | -0.381 |
| HMSMQIILLDKVVNLGGLGDVVKVKDGYARNYLIPQGKAKRANTANLAEFEARRVELERLAAEQLAQAQA | -0.478 |
| HMSMRIDTNTLNYYVQNAQISLSVLRTKINNLDQFLSGEKQPTFNQLSEIAKKINVPTGLLLLNKS | -0.698 |
| HMSMSKISNLLEIMMIIQYKGLTTASELAQSLGVDKKTVYRYINSLSKANIPIYTKKGRYGGFYIDKNF | 0.138 |
| HMSMSTVGERIKKKRKNLNFTQQELAAKLNISAQAVSKWENGVALPDLGLMPKLAQVLESTVDGLLGYQGA | -0.235 |
| HMSMTLSVLDDVRGLSESRRKQLFHSFGSIKKLREQSKETLMSIPYLPEKVALELYDKLHEE | 0.272 |
| HMSMVGSVNKQGRPFALLRVDNLLYQVKVGDYLGQNYGRITQIDETQIALREIVQDAAGEWIERPGVLQL | -0.256 |
| HMSNATELVYDDGRKLLISYETLVGGYHPDLGWIRTAKTYSISTDKHIRNYFNNVTNPRVVGEDILETLKI | -0.237 |
| HMSNDRSYLARLQDYYAEHRALPSYASIGALLGLRSKSSVAALVARLKLAGFVESTPDRRLAPTRRFF | 0.344 |
| HMSNEWIEISAKTVDDAINEGLIRLGTTTDKMDVEVLEKESAGFLGFIGKHDAKIRVRFKEV | -0.608 |
| HMSNGYVTAKTTVNVRKSASESGERLGVIYQGDKLELVMNQADGWTKVKYKGQTAYVKSEFM | 0.161 |
| HMSNHYETLGVPRDASQEDIKRAYRRLARKLHPDVAGPGKAEEFKAVNEAYAVLSDEESRRMYDLGGDDAL | 0.145 |
| HMSNIQLVENLYRLRKAHHYTQQEISDLLNISRQAYSNYETSKRTPDLDSLMRLADIYGVSLDQLVNHP | -0.347 |
| HMSNLENSLNESLSLLKSNKYNEALEILKKIEIEDSRVFFLLGTIYSVMKNINLGEEFLIKASK | -1.32 |
| HMSNLGLQIVRTLTDAGKGVVFITHKLKEALTIADRINVLRRGKVVGDADPKTASESQIAEMMVGRPVQL | 0.0653 |
| HMSNMWVWSKLSGIQWMDAWEDRFHGNPNTVITRLKTNKTVRVEVYTETEQEALDIKKLFGGSIRKLV | 0.103 |
| HMSNRFIQFRQRAIDWLNSDRDFNAGILLLEESGFKPGVVAKLKRHGVNGPEAKKRLKFLINELVKAWA | -0.374 |
| HMSNVKVYPNPTSGKLTIDAENYKGVEVYDTSGRLIVKSELRTIDLEEQSKGLYLLKVNANGTTQEFKVFK | -0.977 |

| Sequence | soluble fraction (log2) |
| --- | --- |
| HMSNYLKSVEVFDPITNKWSYVSAMKVRRGYVAVVATMDRLYAIGGYDGENYLSTVEMYNPDTN | 0.0787 |
| HMSPAVSLITGKLGAETYYKQGLKKAKEKDYEGALDDLIKAYEFFPDKKIKTQVDKLASFLGKPPIL | 0.0374 |
| HMSPIKAGDLVKITGTKYYRGQTIPSWVKAKNWFVHSVSGDRAVINKSEDGKNAIMSPVKVSNLALVT | 0.0492 |
| HMSPILTPDQATKAYGKDGVLYIHSNKERTIYIYDVTGRTVRILEAVEGENQINGLEKGIYFLEGQKVAV | -0.378 |
| HMSPLQLGNYNTLRITRFTDHGAYLDGGDVGEILMPKTYVLPEMKPGDEVRVFVYLDQEERLVGTTET | -1.44 |
| HMSPPVIQQGQDVRLIYKGTGFAVSNEGKALNTAADGQVARARTGGGQTVSGIARPGGIIEIT | 0.103 |
| HMSPQPPNQEAVRTRILDQAAHLFLTIGYAETTVRRIAGAVGIKAASLYHHFGSKDEVFESILIR | 0.21 |
| HMSPRADRSVNLDVGETVQIDDWGADGTAQIRYRGAPWTAVLRPGHTPHPGPHRVIELVGSRLLVEP | -0.746 |
| HMSPRAIYVTTSDLNMRMQPSPNAYKRGVAPRGTELLVVEWGDDWSKVIFEGDTAYAASRYLSYVKDEP | -0.419 |
| HMSQDEVVADMKADLGPDADNIIRSNIQWADGLVRKGILTESEREELDVMGGTPEAQRILVKLRTMQG | -0.539 |
| HMSQDTLIENGKVFLIHKVVAGQTLYGLSKAYNITIEDIIKYNPQAENGIKIGEDIKIFLKEE | -1.1 |
| HMSQEHTVPDYKDMEATVVYADLTQKGLNYEIAQETSPTIKEGNVTQTIPGMNEKVVSGDTITVFVSTGTG | -0.907 |
| HMSQIDLQIGHKIKSKRRKLGISQADMAKKLYISPSYLNLIESGKRKINVDLLLKLSNELGIEMSDIS | 0.33 |
| HMSQIILSARSGHAALRHRLGELGYTFADKEFDDIYERFLEVADQKKEVYDEDLESIVQERQRD | -0.559 |
| HMSQITEADYIPNTDKTWGELMEETGESLPNLVERYNNEMTKSNGKEQPQSIIQRIIEDYQMVS | -0.0864 |
| HMSQLSDEQELRDIARGIIEGNPNEAEKYRAGRTGLLGFFVGKLMAETEGKANPRLASRILKELLE | -0.441 |
| HMSQLSQIVDAFGGLRPFARALNKPPSTVQYWIEKGGIPASVVSPIMKLSEEKGLGLSRDQVSAAVS | 0.0542 |
| HMSQLTVGTVVTGNASLQTQGLKLPSFASGSRPASPNIGQMIWNSSDAKAQIWNGSEWDDVG | ≥ 0.43 |
| HMSQNVSFTVDSGQAGLRLDVFLSQADPAFSRSQIKYAIEEGDVTVNGKEPKVSQHLKDGDIVELHLE | 0.114 |
| HMSQQEAQLNSLVKIYESMKPKDAARIFDTLDMDVLLDVVMRMKEARSAAVLAEMTPDRAKEVTLQLAD | -1.8 |
| HMSQTDQALRHLIREAWATLPQRQQQAVELAYYEGLPDTEIAARLNQPVEEVKTSIVLGMAHLREALHSY | -0.198 |
| HMSQTDTDAKDARQKILALLSDGEWHQKTELLKIDAPKEAVSNAIRYLVLEELISIDHAKVRA | -0.465 |
| HMSQTVKYVNTTSGLNMRTGPATSYAKITTIAYGQSVNVLSTSNGWSKINYSGSTGYVSSQYLQSKKPS | 0.183 |
| HMSQVHYAVLFKNASAAEATEIVTYARETLGVQDIKINANGDILVPEDKVEEMRVSMSIAGFPK | -0.349 |
| HMSQVSTKYINVSSAYVRSKPSKDGEIVTSLIKNTDVTVTGENGDWYKIKFNNYEGYIFKELLSDSKLEE | -0.35 |
